Test results taken from article PMC10672810, “Research of Multicopper Oxidase and Its Degradation of Histamine in Lactiplantibacillus plantarum LPZN19” (Microorganisms, 2023).

How the values were obtained:
[1] = substrate: NCCc1c[nH]cn1; test: histamine degradation monitored by LC-MS; assay type: biochemical, Lactiplantibacillus plantarum; details: 50 °C, pH not stated for this assay
[2] = substrate: CCn1c(=NN=c2sc3cc(S(=O)(=O)O)ccc3n2CC)sc2cc(S(=O)(=O)O)ccc21; test: ABTS oxidation, visible absorption, Lineweaver-Burk; assay type: biochemical, Lactiplantibacillus plantarum; details: MES buffer, pH 3.5, 50 °C, 2 h
Excerpt: ABTS oxidation, visible absorption, Lineweaver-Burk on MCO (multicopper oxidase)

B1: MCO (multicopper oxidase) (Lactiplantibacillus plantarum WCFS1) (protein)
chain: MAKKVYTDYFFDEPAYNTHDGGYIPLVTPKVEPQPLAIPPLLKPDRQTDTDDYYTVTAQESETQFLPGKKTKTWGYNAGFLGQTIVFRNGKQTHIDLENKLPELTTFHWHGLNVPGPITDGGCHAPVYPGETNHIDFKVHQPAATTWLHAHPCPSTATQVWKGLATMVIIKDDVEDQLPLPRNYGVDDIPLVLQDREFHDDNQFDYRADYDPDGVQGHTALVNGTVNPYFDVTTQRVRLRILDGSNRREWRLHFNDDLEFAQVASDGGILPAPVYMTKVMMTCAERDEIVVDFGQYQPGDEVTLMTDDTPLCRFRIKSFVPDDTKLPEHLVDIPDETPTPDLPVRTITMDGMDDEVALDGKKFDMSRIDARQKVGDVAIWEIRNTNSTENGMVHPFHVHGTQFRVLARNDGPVYPNEHGLKDTVGVNPGETVRIKVKFELTGVYMYHCHIIEHEDGGMMAQIESYDPQHPQTYHLMDMDTLRNAFAKEQGIKPEDVWMPGM
notes: full length, 501 residues, no signal peptide; pET-28a EcoRI/HindIII, N-terminal His-tag (about 67 kDa on SDS-PAGE), E. coli BL21 (DE3), Ni-NTA; primers imply N-terminus MAKKVYTD and C-terminus WMPGM; peptides EFHDDNQFDYR, GLATMVIIKDDVEDOLPLPR
B1 showed a Km [1] of 2.07 ± 0.18 mmol/L, a Km [2] of 2.18 ± 0.13 mmol/L and a kcat [2] of 3.77 ± 0.09 s⁻¹. For the same protein, the kcat/Km [2] was 1730 ± 160 M⁻¹ s⁻¹.
